The assay deals with T1, recombinant PSPC1-His (UniProt Q8WXF1 1-523).
T1 construct: paraspeckle component 1 (PSPC1) cloned into the pET 26b vector; source: E. coli BL21 (DE3), purified (His-tag Protein Purification Kit)
T1 sequence (looked up): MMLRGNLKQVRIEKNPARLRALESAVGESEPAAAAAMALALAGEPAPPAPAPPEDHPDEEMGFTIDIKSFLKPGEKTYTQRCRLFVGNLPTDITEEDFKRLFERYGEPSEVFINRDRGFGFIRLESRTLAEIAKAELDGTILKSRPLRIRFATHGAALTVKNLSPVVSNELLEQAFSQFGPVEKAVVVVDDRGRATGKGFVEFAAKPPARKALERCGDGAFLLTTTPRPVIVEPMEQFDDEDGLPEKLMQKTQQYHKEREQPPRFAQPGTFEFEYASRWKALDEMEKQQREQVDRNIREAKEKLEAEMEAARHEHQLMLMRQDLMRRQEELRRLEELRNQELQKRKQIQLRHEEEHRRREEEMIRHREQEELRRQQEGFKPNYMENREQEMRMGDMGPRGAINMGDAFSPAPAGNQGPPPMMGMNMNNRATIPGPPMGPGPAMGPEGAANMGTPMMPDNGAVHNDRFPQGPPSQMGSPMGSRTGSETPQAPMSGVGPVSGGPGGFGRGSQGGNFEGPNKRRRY
Description: pull-down; GST pull-down: GST-ALKBH5 on glutathione beads (untreated or K235-acetylated by immunopurified KAT8) incubated with PSPC1-His at 4 °C for 1 h; washed with 20 mM HEPES pH 7.6, 0.1 M KCl, 0.1 μM EDTA, 10% glycerol, 0.02% NP-40; western blot. Particulars: both partners purified. (Immunoblotting shows a protein as a band on a membrane.)

B1: recombinant GST-ALKBH5 (enzyme, UniProt Q6P6C2 1-394, looked up)
chain: MAAASGYTDLREKLKSMTSRDNYKAGSREAAAAAAAAVAAAAAAAAAAEPYPVSGAKRKYQEDSDPERSDYEEQQLQKEEEARKVKSGIRQMRLFSQDECAKIEARIDEVVSRAEKGLYNEHTVDRAPLRNKYFFGEGYTYGAQLQKRGPGQERLYPPGDVDEIPEWVHQLVIQKLVEHRVIPEGFVNSAVINDYQPGGCIVSHVDPIHIFERPIVSVSFFSDSALCFGCKFQFKPIRVSEPVLSLPVRRGSVTVLSGYAADEITHCIRPQDIKERRAVIILRKTRLDAPRLETKSLSSSVLPPSYASDRLSGNNRDPALKPKRSHRKADPDAAHRPRILEMDKEENRRSVLLPTHRRRGSFSSENYWRKSYESSEDCSEAAGSPARKVKMRRH
notes: AlkB homolog 5 (ALKBH5) cloned into the pGEX vector; also called recombinant ALKBH5; source: E. coli BL21 (DE3), purified (Glutathione Sepharose)
With B1, the binding result is on record as “binds”.

B2: recombinant K235-acetylated GST-ALKBH5 (enzyme, UniProt Q6P6C2 1-394, looked up)
chain: MAAASGYTDLREKLKSMTSRDNYKAGSREAAAAAAAAVAAAAAAAAAAEPYPVSGAKRKYQEDSDPERSDYEEQQLQKEEEARKVKSGIRQMRLFSQDECAKIEARIDEVVSRAEKGLYNEHTVDRAPLRNKYFFGEGYTYGAQLQKRGPGQERLYPPGDVDEIPEWVHQLVIQKLVEHRVIPEGFVNSAVINDYQPGGCIVSHVDPIHIFERPIVSVSFFSDSALCFGCKFQFKPIRVSEPVLSLPVRRGSVTVLSGYAADEITHCIRPQDIKERRAVIILRKTRLDAPRLETKSLSSSVLPPSYASDRLSGNNRDPALKPKRSHRKADPDAAHRPRILEMDKEENRRSVLLPTHRRRGSFSSENYWRKSYESSEDCSEAAGSPARKVKMRRH
modifications: acetyl-lysine at 235
notes: AlkB homolog 5 (ALKBH5) cloned into the pGEX vector; The same construct as m6 after treatment with KAT8; source: E. coli BL21 (DE3), purified (Glutathione Sepharose), then K235-acetylated by immunopurified KAT8
Consider B2, for which the binding result was “binds”.

Values taken from article PMC10300122, “K235 acetylation couples with PSPC1 to regulate the m^6A demethylation activity of ALKBH5 and tumorigenesis” (Nature Communications, 2023).
